Test results as given in patent US20200000897A1 (published 2020).

Target: T1, HLA-A*03:01 (human)
T1 construct: MHC class I monomer first loaded with a UV-sensitive peptide that is cleaved by UV irradiation and exchanged for the test peptide; captured on streptavidin plates; also called peptide-receptive MHC molecules
Test: UV-ligand exchange, anti-b2m ELISA; peptide exchange yield grade (>10% +, >20% ++, >50% +++, >75% ++++)
In short: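 HLA-A*03:01 complexes were formed by UV-induced exchange of a photocleavable peptide for the test peptide. Exchange yield was measured by ELISA: streptavidin capture of 100-fold diluted monomers, HRP-anti-β2m detection, TMB read at 450 nm, quantified against HLA-A*02:01 monomer standards (15–500 ng/ml) and graded by % yield.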

Row | peptide exchange yield | Binder
1 | > 75% | RTALLWGLKK
2 | 20 to 50% | VSVAGSILAK
3 | 10 to 20% | RAVSVNPGK
4 | > 75% | RLASVGLDAK
5 | > 75% | RTYTCQVTY
6 | 50 to 75% | RVSGSGGGGAGK
7 | 50 to 75% | TTNARILAR
8 | > 75% | RLLQHTPSAR
9 | 50 to 75% | VIYVICRHK
10 | > 75% | RVRALGSQY
11 | 50 to 75% | SVEGLSRRLK

The remaining lines, values behind:

Row | Binder | peptide exchange yield
12 | GTHVWVGLYK | > 75%
13 | FLGLAFHPK | 20 to 50%
14 | QLYSPPSPSYR | > 75%
15 | KRIPFRPLAK | 20 to 50%
16 | CLANYTVNK | > 75%
17 | IMPTFDLTK | 10 to 20%
18 | HLFLPFSYK | > 75%
19 | HMDEFKRTQK | 50 to 75%
20 | PLPRPGAVLK | 20 to 50%
21 | KARDLRTPK | 50 to 75%
22 | KLADSVMAGK | > 75%
23 | IMKRQVKCITK | 10 to 20%
24 | GMTLLCEALK | 20 to 50%
